Here are results for 53 proteins from the supplement of paper PMC10567573.

A short description of this series: protein stability index of a GFP-peptide fusion (GPS, HEK-293T) (PSI 1-6); higher = more stable.
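Note: lentivirally expressed fusions sorted by FACS into six bins by GFP to DsRed ratio, PSI derived from sequencing read proportions per bin multiplied by bin number.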

Regarding HIKLHSGEKPFKCHLCNYACRRRD, for the setting “parent: IOH9679_28, c terminus: a fixed tail appended”, the protein stability index came out at 1.92. Regarding FLRQLPFRGDDGIFDDNFIEERKQ [SNX3 WT], the protein stability index (parent: IOH7529_17, c terminus: a fixed tail appended) was determined as 3.4. In the case of YLDPSVLSGVSCFVMFLCLADYLV [ARL6IP1 WT], the protein stability index (parent: IOH11244_11, c terminus: a fixed tail appended) came out at 2.87. As for IAQYALLGYFIRSWRTLAILVNLQ [SLC22A15 WT], the protein stability index (parent: IOH10897_34, c terminus: a fixed tail appended) worked out at 2.63.

Consider DMRDPTYRPLKQELQGLDYCKPTR [SPSB1 WT], for which, for the setting “parent: IOH10100_3, c terminus: a fixed tail appended”, the protein stability index came to 3.17. Consider TYWEHWTSQGQVRMRLFGQRCQKC, for which the protein stability index (parent: IOH10686_13, c terminus: a fixed tail appended) came to 1.83. Take FCDMDKSLLCLLCSNSQEHGAHKH: the protein stability index (parent: IOH10304_18, c terminus: a fixed tail appended) was 1.87. In the case of DECEKAYFYMSCLVKHKRIHSREK [ZNF649 WT], the protein stability index (parent: IOH7272_73, c terminus: a fixed tail appended) came out at 2.53. As for LIVVTQSHLVIHNLFEGMIWFIVP, for the setting “parent: IOH10978_35, c terminus: a fixed tail appended”, the protein stability index came to 2.99.

On to IKRTIRVLDVNNQSFREQEEPSNK, for which, under “parent: IOH11256_3, c terminus: a fixed tail appended”, the protein stability index was determined as 3.53. In the case of IHSIALSTFASLIGPFGGFFASGF, the protein stability index (parent: IOH10978_57, c terminus: a fixed tail appended) turned out to be 3.13.

Consider NRFRVEISFHFEVTNHNIRLFEDV, for which the protein stability index (parent: IOH10304_48, c terminus: a fixed tail appended) is 2.93. With LYKEELEQTYHAKLENARLSSEMN [LMNB1 WT], the protein stability index (parent: IOH11078_44, c terminus: a fixed tail appended) was determined as 2.79.

Turning to RVRPLARVTSLANLISPVRNGAVR, the protein stability index (parent: IOH11256_7, c terminus: a fixed tail appended) was 3.05.

As for AVLAASSPYFHDQVLLKGMTSISL, the protein stability index (parent: IOH10718_13, c terminus: a fixed tail appended) was 2.63. On to LTKASLKPRGCSKPPWRPPGGKL, for which the protein stability index (parent: IOH11209_36, c terminus: native) worked out at 2.04. RDIDLKNRRGGPPFAFVEFEDPRD: the protein stability index (parent: IOH11039_8, c terminus: a fixed tail appended) worked out at 3.81.

Consider AFGWFRCSSCQRSWASAQVQILCH, for which the protein stability index (parent: IOH10686_9, c terminus: a fixed tail appended) was determined as 2.29.

With RGVRRTASTPTPDDKLFQKLAKVY [CPN1 WT], the protein stability index (parent: IOH11355_40, c terminus: a fixed tail appended) worked out at 1.95. With FSDSSMDHFQKFLPTVGGQLGTAG [MYOZ1 WT], where the note is “parent: IOH11059_14, c terminus: a fixed tail appended”, the protein stability index was found to be 2.43. On to VFIFYYVVEEILELHIHRLRYLSS, for which, for the setting “parent: IOH11095_61, c terminus: a fixed tail appended”, the protein stability index amounted to 2.92. Regarding HRRGLGVDSKPELQRVLEHRRRNQ, the protein stability index (parent: IOH10203_10, c terminus: a fixed tail appended) is 3.91. In the case of TYECRCIGEEKEMWNFGEKYARF [TIA1 WT], under “parent: IOH10042_33, c terminus: native”, the protein stability index is 1.9. As for QLDWDELETNQQHFHALCHSLLVS [C2orf65 WT], the protein stability index (parent: IOH10869_57, c terminus: a fixed tail appended) stood at 2.16. Regarding KSCQACRLRKCYEVGMVKCGSRRE [ESR2 WT], the protein stability index (parent: IOH10714_34, c terminus: a fixed tail appended) amounted to 1.85.

Take RPFDCPVCNKKFKMKHHLTEHMKT: the protein stability index (parent: IOH10718_86, c terminus: a fixed tail appended) was 2.37. In the case of YARYHQAFADRDQSERQRHESQQL, the protein stability index (parent: IOH11065_9, c terminus: a fixed tail appended) turned out to be 2.09. For SGPEAARAGGWVSGEEFYMLTRRV, where the note is “parent: IOH11095_116, c terminus: a fixed tail appended”, the protein stability index was 2.25.

As for YSGGGYYLDLPGSRQGSAEALRAL, the protein stability index (parent: IOH11095_45, c terminus: a fixed tail appended) stood at 1.95. With SEVEELNMSLTALREKLLEAEQSL, under “parent: IOH11065_62, c terminus: a fixed tail appended”, the protein stability index came out at 2.99. For TLARCAKDILGFAVMFFIVFFAYA, the protein stability index (parent: IOH11095_79, c terminus: a fixed tail appended) came to 2.95. LQRVLEHRRRNQLIKKKKEELEAK: for the setting “parent: IOH10203_12, c terminus: a fixed tail appended”, the protein stability index was 3.41. Turning to RDPFECNMCGYHSQDRYEFSSHIT, the protein stability index (parent: IOH9679_75, c terminus: a fixed tail appended) stood at 1.89. TKHKCRQLTKASLKPRGCSKPPWR: the protein stability index (parent: IOH11209_33, c terminus: a fixed tail appended) was found to be 2.75. On to YQEIFQQLQRSWVKMDQKSKHLKE, for which the protein stability index (parent: IOH10304_35, c terminus: a fixed tail appended) came out at 2.05.

Take HYPFLGAMGDHSKKKPGTAMCVGC [ISL2 WT]: the protein stability index (parent: IOH10979_2, c terminus: a fixed tail appended) amounted to 2.74. With YHNSPAYLAYINAKSRAEAALEEE [SMARCE1 WT], the protein stability index (parent: IOH7424_23, c terminus: a fixed tail appended) stood at 2.1.

Consider IMALVAAILLLVIIILIVMKYRT, for which the protein stability index (parent: IOH7463_24, c terminus: native) amounted to 2.83.

As for FAPQTGARPSETFARFCKSQESAL [C19orf51 WT], for the setting “parent: IOH10770_74, c terminus: a fixed tail appended”, the protein stability index came out at 2.22.

With FSSSSQEAFAASAVGSGERRGGGP, under “parent: IOH10718_37, c terminus: a fixed tail appended”, the protein stability index worked out at 3.33. With LREKLLEAEQSLRNLEDIHMSLEK, the protein stability index (parent: IOH11065_64, c terminus: a fixed tail appended) was 2.56. Regarding FVESSGGGSSAVGQFVSLDGAGKT, the protein stability index (parent: IOH11305_8, c terminus: a fixed tail appended) was determined as 2.44. As to YSGAYGASVSDEELKRRVAEELAL [CHCHD3 WT], under “parent: IOH11162_9, c terminus: a fixed tail appended”, the protein stability index was 2.57. Regarding YSPRRSRGSPRYSPRHSRSRSRT, the protein stability index (parent: IOH11039_42, c terminus: native) was determined as 3.93.

Regarding CTACGSVLEDNIIVSEVQFVESSG, the protein stability index (parent: IOH11305_5, c terminus: a fixed tail appended) turned out to be 3.03.

With PTPAKRRSSALWSEMLDITMKESL, the protein stability index (parent: IOH11256_16, c terminus: a fixed tail appended) is 2.21. With TSGKRYVYRFVCDLQNLLGFTPEE [ETS2 WT], the protein stability index (parent: IOH10422_73, c terminus: a fixed tail appended) is 2.7. For the protein RAQMIRNEYRKLHPVLHKEEKQHL, the protein stability index (parent: IOH10304_30, c terminus: a fixed tail appended) came to 3.05. Consider NNSWIRKNSTMVNSEDIFLLLCLK, for which the protein stability index (parent: IOH10304_60, c terminus: a fixed tail appended) worked out at 2.69.

Take YHSQDRYEFSSHITRGEHRFHMS: the protein stability index (parent: IOH9679_77, c terminus: native) is 2.09. Turning to HTGLKPYECGVCAKKFMWRDSFMR, the protein stability index (parent: IOH10718_90, c terminus: a fixed tail appended) was determined as 2.3. Regarding FVEDSFDPNINPTIGASFMTKTVQ [RAB22A WT], the protein stability index (parent: IOH10004_5, c terminus: a fixed tail appended) was found to be 2.26. Regarding FLRGPSGPRFGPRNDKIKHVQNQV, the protein stability index (parent: IOH7463_7, c terminus: a fixed tail appended) came out at 2.7.
